Assays:
[1] = molecular target: actin (thin filament, F-actin) of mouse left ventricular myocardium (mouse (endogenous in C57/BL6 left ventricle)) (UniProt P68033)
[2] = molecular target: actin (thin filament, F-actin) of mouse left ventricular myocardium (mouse (endogenous in C57/BL6 left ventricle)) (UniProt P68033); remark: listed apart in the source
[3] = molecular target: actin (thin filament, F-actin) of mouse left ventricular myocardium (mouse (endogenous in C57/BL6 left ventricle)) (UniProt P68033); remark: listed apart in the source
[4] = molecular target: actin (thin filament, F-actin) of mouse left ventricular myocardium (mouse (endogenous in C57/BL6 left ventricle)) (UniProt P68033); remark: listed apart in the source
[5] = molecular target: actin (thin filament, F-actin) of bovine myocardium (bovine (endogenous in left ventricle and left atrium)) (UniProt Q3ZC07)
[6] = molecular target: actin (thin filament, F-actin) of bovine myocardium (bovine (endogenous in left ventricle and left atrium)) (UniProt Q3ZC07); remark: listed apart in the source
[7] = molecular target: actin (thin filament, F-actin) of bovine myocardium (bovine (endogenous in left ventricle and left atrium)) (UniProt Q3ZC07); remark: listed apart in the source

**Q.** Which results are given for “titin (connectin) of mouse left ventricular myocardium, predominately the N2B isoform (natural protein)”?
**A.** reduction of titin-based passive tension of skinned MLV after thin filament (actin) extraction with gelsolin, at SL 2.25 μm (calculated from total tension with titin's fractional contribution) [1]: 44%; reduction of total passive tension during stretch of skinned MLV after thin filament (actin) extraction with gelsolin, at SL 2.25 μm [2]: 22%; decrease of passive stiffness/tension during stretch of skinned MLV with both S100A1 (1 μg/μL, Sigma) and calcium (pCa 6.8), relative to pCa 9.0; stretch speeds 0.1 and 2.0 length/sec [3]: < 20%; decrease of hysteresis (area of the force-length loop of stretch-release cycles) of skinned MLV after actin extraction with gelsolin, at SL 2.25 μm [4]: 33%

**Q.** For “titin of bovine left atrial myocardium, mainly the N2BA isoform (natural protein)”, which reduction of titin-based passive tension of skinned BLA after thin filament (actin) extraction with gelsolin, at SL 2.25 μm (calculated from total tension with titin's fractional contribution) [5] is on record?
**A.** Its reduction of titin-based passive tension of skinned BLA after thin filament (actin) extraction with gelsolin, at SL 2.25 μm (calculated from total tension with titin's fractional contribution) is 12%.

**Q.** And the reduction of total passive tension during stretch of skinned BLA after thin filament (actin) extraction with gelsolin, at SL 2.25 μm [6]?
**A.** The reduction of total passive tension during stretch of skinned BLA after thin filament (actin) extraction with gelsolin, at SL 2.25 μm was 10%.

**Q.** What about the decrease of hysteresis (area of the force-length loop of stretch-release cycles) of skinned BLA after actin extraction with gelsolin, at SL 2.25 μm [7] of the same substance?
**A.** The decrease of hysteresis (area of the force-length loop of stretch-release cycles) of skinned BLA after actin extraction with gelsolin, at SL 2.25 μm was 35%.

**Q.** With “titin of bovine left ventricular myocardium, a mixture of the N2B and N2BA isoforms (natural protein)” as the substance, how does the reduction of titin-based passive tension of skinned BLV after thin filament (actin) extraction with gelsolin, at SL 2.25 μm (calculated from total tension with titin's fractional contribution) [5] read?
**A.** Its reduction of titin-based passive tension of skinned BLV after thin filament (actin) extraction with gelsolin, at SL 2.25 μm (calculated from total tension with titin's fractional contribution) is 20%.

**Q.** What about the reduction of total passive tension during stretch of skinned BLV after thin filament (actin) extraction with gelsolin, at SL 2.25 μm [6] of the same substance?
**A.** The reduction of total passive tension during stretch of skinned BLV after thin filament (actin) extraction with gelsolin, at SL 2.25 μm was 17%.

**Q.** And the decrease of hysteresis (area of the force-length loop of stretch-release cycles) of skinned BLV after actin extraction with gelsolin, at SL 2.25 μm [7]?
**A.** The decrease of hysteresis (area of the force-length loop of stretch-release cycles) of skinned BLV after actin extraction with gelsolin, at SL 2.25 μm was 52%.
